Assay results taken from publication PMC11975207, “One‐Pot Hetero‐Di‐C‐Glycosylation of the Natural Polyphenol Phloretin by a Single C‐Glycosyltransferase With Broad Sugar Substrate Specificity” (Biotechnology and Bioengineering, 2025).

Tests used:
Assay in all cases: HPLC of UDP release, initial rates, Michaelis-Menten fit
Format in all cases: biochemical, Citrus japonica
Settings in all cases: 1.0 mM phloretin as acceptor, pH 8.0, 30 °C, donor 20-800 µM
[1] = substrate: O=c1ccn([C@@H]2O[C@H](COP(=O)(O)OP(=O)(O)O[C@H]3OC[C@@H](O)[C@H](O)[C@H]3O)[C@@H](O)[C@H]2O)c(=O)[nH]1
[2] = substrate: O=c1ccn([C@@H]2O[C@H](COP(=O)(O)OP(=O)(O)O[C@H]3O[C@H](CO)[C@H](O)[C@H](O)[C@H]3O)[C@@H](O)[C@H]2O)c(=O)[nH]1
[3] = substrate: O=c1ccn([C@@H]2O[C@H](CO[P@@](=O)(O)O[P@@](=O)(O)O[C@H]3O[C@H](CO)[C@@H](O)[C@H](O)[C@H]3O)[C@@H](O)[C@H]2O)c(=O)[nH]1

B1: FcCGT (Citrus japonica) (protein)
chain: MSDSGGFDSHPHVALIPSAGMGHLTPFLRLAASLVQHHCRVTLITTYPTVSLAETQHVSHFLSAYPQVTEKRFHLLPFDPNSANATDPFFLRWEAIRRSAHLLAPLLSPPLSALITDVTLISAVLPVTINLHLPNYVLFTASARMFSLTASFPAIVASKSTSSGSVEFDDDFIEIPGLPPIPLSSVPPAVMDSKSLFATSFLENGNSFVKSNGVLINSFDALEADTLVALNGRRVVAGLPPVYAVGPLLPCEFEKRDDPSTSLILKWLDDQPEGSVVYVSFGSRLALSMEQTKELGNGLLSSGCRFLWVVKGKTVDKEDEESLKNVLGHELMEKIKDQGLVVKNWVDQDKVLSHRAVGGFVSHGGWNSLVEAARHGVPVLVWPQFGDQKINAEAVESAGLGMWVRSWGWGTELRAKGDEIGLKIKDLMANDFLREQAKRIEEEARKAIGVGGSSERTFKELIDKWKCNNNTH
notes: recombinant purified; polypeptide Mr 53600; construct details in supplement and Li et al. 2023
Km [1]: 122 ± 11 µM
kcat [1]: 15 ± 0.8 min–1
Km [2]: 432 ± 26 µM
kcat [2]: 0.28 ± 0.01 min–1
Km [3]: 55 ± 2.4 µM
kcat [3]: 139 ± 2.5 min–1
